From publication PMC2553845 (2008)
Where no end group is shown, it is not given here.

What was measured:
Assay in all cases: ELISA
SCRIB PDZ domain 3 = molecular target: T1, SCRIB PDZ domain 3 (human, UniProt Q14160 1004-1093)
T1 chain: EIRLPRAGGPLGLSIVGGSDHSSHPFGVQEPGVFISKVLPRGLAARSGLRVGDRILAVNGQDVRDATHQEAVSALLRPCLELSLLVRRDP

SCRIB PDZ domain 1 = SCRIB PDZ domain 1 (human, UniProt Q14160 728-815)
SCRIB PDZ domain 2 = molecular target: T2, SCRIB PDZ domain 2 (human, UniProt Q14160 862-950)
T2 chain: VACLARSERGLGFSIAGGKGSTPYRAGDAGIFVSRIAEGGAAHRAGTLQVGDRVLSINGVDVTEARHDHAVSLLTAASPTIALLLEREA

Chain of SCRIB PDZ domain 1 (Q14160 728-815): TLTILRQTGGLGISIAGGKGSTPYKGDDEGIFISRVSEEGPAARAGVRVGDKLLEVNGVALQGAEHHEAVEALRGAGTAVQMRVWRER

B1: designed SCRIB PDZ-binding peptide Π-RSWFETWV (peptide 14) (peptide)
chain: RQIKIWFQNRRMKWKKRSWFETWV
modifications: not fully specified
- IC50 (SCRIB PDZ domain 3): 3.9 µM
- IC50 (SCRIB PDZ domain 1): 2.2 µM
- IC50 (SCRIB PDZ domain 2): 4.7 µM

B2: peptide 2, C terminus of the HTLV-1 Tax protein (peptide)
chain: KHFRETEV
modifications: not fully specified
- IC50 (SCRIB PDZ domain 3): 58 µM
- IC50 (SCRIB PDZ domain 1): 3.4 µM
- IC50 (SCRIB PDZ domain 2): 5.2 µM
